First the molecules themselves.
B1: HDV Ribozyme (parent)
chain: GGCCGGCAUGGUCCCAGCCUCCUCGCUGGCGCCGGCUGGGCAACAUUCCGAGGGGACCGUCCCCUCGGUAAUGGCGAAUGGGACCCA

In this series the parent is B1. The series is described as follows: self-cleavage, relative activity (ratio to wild type); higher = more cleavage; co-transcriptional.
Take GGCCGGCAUGGUCCCAGCCUCCUCGCUGGCGCCCGCUGGGCAACUUUCCGAGGGGACCGUCCCCUCGGUAAUGGCGAAUGGGACCCA [G34C A45U]: the self-cleavage came out at 0.0378.

For the variant GGCCGGCACGGUCCCAGCCUCCUCGCUGGCGCCGGCUGGGCAACAUUCCGAGGGGACCGUCCCCUCGGUAAUGGCGAAUGGGACCCA [U9C], the self-cleavage stood at 1.04.

As to GGCCGGCAUGGUCCCAGCCUCUUCACUGGCGCCGGCUGGGCAACAUUCCGAGGGGACCGUCCCCUCGGUAAUGGCGAAUGGGACCCA [C22U G25A], the self-cleavage turned out to be 0.

For the variant GGCCGGCAUGGUCUCAGCCUCCUCGCUGGCGCCGGCUGGGCAACAUUCCGAGGGGACCGUCCCCUCGGUAAUGGCGAAUGUGACCCA [C14U G81U], the self-cleavage worked out at 0.729.

In the case of GGCCGGCAUGGUCCCAGCCUCCUCGCUGGCGCCGGCUGGGCAACAUUCCGAGGGCACCGUCCGCUCGGUAAUGGCGAAUGGGACCCA [G55C C63G], the self-cleavage came out at 0.888.

For GGCCGGCAUGGUUCCCGCCUCCUCGCUGGCGCCGGCUGGGCAACAUUCCGAGGGGACCGUCCCCUCGGUAAUGGCGAAUGGGACCCA [C13U A16C], the self-cleavage amounted to 0.8.

In the case of GGCCGGCAUGGUCCCAGCCUCCUCGCUGGCGCCGGCUGGGCAACAUUCCGAGCGGACCGUCCUCUCGGUAAUGGCGAAUGGGACCCA [G53C C63U], the self-cleavage amounted to 0.997.

In the case of GUCCGGCAUGGUCCCAGCCUCCUCGCUGGCGGCGGCUGGGCAACAUUCCGAGGGGACCGUCCCCUCGGUAAUGGCGAAUGGGACCCA [G2U C32G], the self-cleavage was found to be 0.

For the variant GGCCGGCAUGGUCCCAGCCUCCGCGCUGGCGCCGGCUGGGCAACAUUCCGAGGGGACCGACCCCUCGGUAAUGGCGAAUGGGACCCA [U23G U60A], the self-cleavage came to 0.831.

GGCCGGCAUGGUCCCAGCCUCCUCGCUGGCGCCGGCCGGGCAACAUUCCGAGGGGACCGUGCCCUCGGUAAUGGCGAAUGGGACCCA [U37C C61G]: the self-cleavage is 0.816.

For GGCCGGCAUGGUCCCAGCCUCCUCGCUGGCGCCGGCUGGGCAACAUUCCGAGGGGACCGUCCCCUCGGGAAUGGCGAAUGGGGCCCA [U69G A83G], the self-cleavage was 0.739.

Consider GGCCGGCAUGGUCCUAUCCUCCUCGCUGGCGCCGGCUGGGCAACAUUCCGAGGGGACCGUCCCCUCGGUAAUGGCGAAUGGGACCCA [C15U G17U], for which the self-cleavage worked out at 0.415.

Turning to GGCCGGCAUGUUCCCAGCCUCCUCGUUGGCGCCGGCUGGGCAACAUUCCGAGGGGACCGUCCCCUCGGUAAUGGCGAAUGGGACCCA [G11U C26U], the self-cleavage was 0.847.

For GGCCGGCAUGGUCCCAGCCUCCUCGCUGGCGCCGGCUGGGCAACAUUCCGAGUGGACCGUCCCUUCGGUAAUGGCGAAUGGGACCCA [G53U C64U], the self-cleavage was 0.853.

As for GGCCGGCAUGGUCCCAGCCUCCUCGCUGGCGCCGGCUUGGCAACAUGCCGAGGGGACCGUCCCCUCGGUAAUGGCGAAUGGGACCCA [G38U U47G], the self-cleavage came out at 0.166.

GGACGGCAUGGUCCCAGCCUCCUCGCUGGCGCCGGGUGGGCAACAUUCCGAGGGGACCGUCCCCUCGGUAAUGGCGAAUGGGACCCA [C3A C36G]: the self-cleavage was 0.0608.

GGCCGGCAUAGUCCCAGCCUCCUGGCUGGCGCCGGCUGGGCAACAUUCCGAGGGGACCGUCCCCUCGGUAAUGGCGAAUGGGACCCA [G10A C24G]: the self-cleavage is 0.061.

For GGCCGGCAUGGUCCCAGCCUCCUCGCUGGCGCCGGCUGGGCAACAUUCCGAGGGGACCGUCCCCUCUGUAAUGGCGAAUUGGACCCA [G67U G80U], the self-cleavage was 0.25.

Regarding GGCCGGCAUGGUCCCACCCUCCUCGCUGGCGCCGGCUGGGCAACAUUCCGAGGGGACCGUCCCUUCGGUAAUGGCGAAUGGGACCCA [G17C C64U], the self-cleavage worked out at 0.0475.

GGCCGGCAUGGUCCCAGCCUCCUCGCUGGCGCCGGCUGGGCAACACUCCGAGGGGACCGUCGCCUCGGUAAUGGCGAAUGGGACCCA [U46C C62G]: the self-cleavage turned out to be 0.249.

On to GGCCGGCAUGGUCCCAGCCUCCUCGCUGGCGCCGGCUGGGCAACAUUCCGAGGGGACCGUCUCCUCGGUCAUGGCGAAUGGGACCCA [C62U A70C], for which the self-cleavage worked out at 0.734.

With GGCCGGCAUCGUCCCAGCCUCCUCGCUGGCGGCGGCUGGGCAACAUUCCGAGGGGACCGUCCCCUCGGUAAUGGCGAAUGGGACCCA [G10C C32G], the self-cleavage was found to be 0.0773.

Turning to GGGCGGCAUGGUCCCAGCCUCCUCGCUGGCGCCGGCUGGGCAACAUUCCGAGGGGACCGUCCCCUCUGUAAUGGCGAAUGGGACCCA [C3G G67U], the self-cleavage stood at 0.626.

Turning to GGCCCGCAUGGUCCCAGCCUCCUCGCUGGCGCCGGCUGGGCAACAUUCCGAGGGGACCGUCCCCUCGGUAAUGGCGAAUGGCACCCA [G5C G82C], the self-cleavage stood at 0.

Consider GGCCGGCAUGGUCCCAGCCUCCUCGCUGGCGCCGGCUGCGCCACAUUCCGAGGGGACCGUCCCCUCGGUAAUGGCGAAUGGGACCCA [G39C A42C], for which the self-cleavage worked out at 0.244.

Turning to GGCCGGCAUGGUCCCACCCUCCCCGCUGGCGCCGGCUGGGCAACAUUCCGAGGGGACCGUCCCCUCGGUAAUGGCGAAUGGGACCCA [G17C U23C], the self-cleavage turned out to be 0.208.

GGCCGGCAUGGUCCCAGCCUCCUCGCUGGCGCCGGCUGGCCAACAUUCCGAGGGGACCGUCCCCUCGGUAAUGGCGAAUGGGACGCA [G40C C85G]: the self-cleavage amounted to 0.16.

For the variant GGCCGGCAUGGUCCCAGCCUCCUCGCUGGCGCCGGCUGGGCACCAUUCCGAGGGGACCGUCCCCACGGUAAUGGCGAAUGGGACCCA [A43C U65A], the self-cleavage turned out to be 0.623.

As to GGCCGGCAUGGUCCCAGCCUCCUCGCUGGCGCCGGCUGGGAAACAUUCCGAGGGGACCGUCCCCUCGGUAAUGGCGAAUGGUACCCA [C41A G82U], the self-cleavage came out at 0.348.

For GGCCGGCAUGGUCCCGGCCUCCUCGCUAGCGCCGGCUGGGCAACAUUCCGAGGGGACCGUCCCCUCGGUAAUGGCGAAUGGGACCCA [A16G G28A], the self-cleavage was found to be 0.131.

GGCCCGCAUGGUCCCAGCCUCCUCGCGGGCGCCGGCUGGGCAACAUUCCGAGGGGACCGUCCCCUCGGUAAUGGCGAAUGGGACCCA [G5C U27G]: the self-cleavage amounted to 0.302.

In the case of GUCCGGCAUGGUCCCAGCCUCCUCGCUGGCGCCGGCUGGGCAACAUUCCGAGGGGACCGUCCCCUCGGUAAUGGCGAAUGCGACCCA [G2U G81C], the self-cleavage came to 0.0779.

(Values after the RNAGym collection of RNA variant scans (doi:10.7554/elife.80360).)
